Here are results for 10 molecules from US20210403527A1 (published 2021).

The chains are these.
B1: TCR018 (TCR, V domains shown)
Valpha: AQTVTQSQPEMSVQEAETVTLSCTYDTSESDYYLFWYKQPPSRQMILVIRQEAYKQQNATENRFSVNFQKAAKSFSLKISDSQLGDAAMYFCAYRSANSGYALNFGKGTSLLVTP
Vbeta: ETGVTQTPRHLVMGMTNKKSLKCEQHLGHNAMYWYKQSAKKPLELMFVYNFKEQTENNSVPSRFSPECPNSSHLFLHLHTLQPEDSALYLCASSQAHYTEAFFGQGTRLTVV
B2: TCR001 (TCR, V domains shown)
Valpha: DAKTTQPNSMESNEEEPVHLPCNHSTISGTDYIHWYRQLPSQGPEYVIHGLTSNVNNRMASLAIAEDRKSSTLILHRATLRDAAVYYCILRPDSWGKFQFGAGTQVVVTP
Vbeta: NAGVTQTPKFRILKIGQSMTLQCAQDMNHNYMYWYRQDPGMGLKLIYYSVGAGITDKGEVPNGYNVSRSTTEYFPLRLELAAPSQTSVYFCASSYSGGSPLHFGNGTRLTVT
B3: TCR167 (TCR, V domains shown)
Valpha: B2 Valpha
Vbeta: GAVVSQHPSWVICKSGTCVKIECRSLDFQATTMFWYRQFPKQSLMLMATSNEGSKATYEQGVEKDKFLINHASLTLSTLTVAGAHPEDSSFYICSAMTVMNTEAFFGQGTRLTVV
B4: TCR050 (TCR, V domains shown)
Valpha: DAKTTQPNSMESNEEEPVHLPCNHSTISGTDYIHWYRQLPSQGPEYVIHGLTSNVNNRMASLAIAEDRKSSTLILHRATLRDAAVYYCILREGNNDMRFGAGTRLTVKP
Vbeta: B2 Vbeta with Y95W, S96T, G97D, G98N, S99Q, L101Q, N105D, T110S, V111I, T112L
B5: TCR108 (TCR, V domains shown)
Valpha: GENVEQHPSTLSVQEGDSAVIKCTYSDSASNYFPWYKQELGKRPQLIIDIRSNVGEKKDQRIAVTLNKTAKHFSLHITETQPEDSAVYFCAASMKDSSYKLIFGSGTRLLVRP
Vbeta: ETGVTQTPRHLVMGMTNKKSLKCEQHLGHNAMYWYKQSAKKPLELMFVYNFKEQTENNSVPSRFSPECPNSSHLFLHLHTLQPEDSALYLCASSQGPGYTFGSGTRLTVV
B6: TCR317 (TCR, V domains shown)
Valpha: QKEVEQNSGPLSVPEGAIASLNCTYSDRGSQSFFWYRQYSGKSPELIMSIYSNGDKEDGRFTAQLNKASQYVSLLIRDSQPSDSATYLCAVNSSPYKLSFGAGTTVTVRA
Vbeta: B5 Vbeta
B7: TCR090 (TCR, V domains shown)
Valpha: GENVEQHPSTLSVQEGDSSVIKCTYSDSASNYFPWYKQELGKRPQLIIDIRSNVGEKKDQRIAVTLNKTAKHFSLHITETQPEDSAVYFCAATGYGQNFVFGPGTRLSVLP
Vbeta: EAQVTQNPRYLITVTGKKLTVTCSQNMNHEYMSWYRQDPGLGLRQIYYSMNVEVTDKGDVPEGYKVSRKEKRNFPLILESPSPNQTSLYFCASSLRGPYGYTFGSGTRLTVV
B8: TCR184 (TCR, V domains shown)
Valpha: DQQVKQNSPSLSVQEGRISILNCDYTNSMFDYFLWYKKYPAEGPTFLISISSIKDKNEDGRFTVFLNKSAKHLSLHIVPSQPGDSAVYFCAARKNYGGSQGNLIFGKGTKLSVKP
Vbeta: DAGVTQSPTHLIKTRGQQVTLRCSPISGHKSVSWYQQVLGQGPQFIFQYYEKEERGRGNFPDRFSARQFPNYSSELNVNALLLGDSALYLCASSLGSYDYTFGSGTRLTVV
B9: TCR063 (TCR, V domains shown)
Valpha: QKEVEQNSGPLSVPEGAIASLNCTYSDRGSQSFFWYRQYSGKSPELIMSIYSNGDKEDGRFTAQLNKASQYVSLLIRDSQPSDSATYLCAVNILASGGSYIPTFGRGTSLIVHP
Vbeta: ETGVTQTPRHLVMGMTNKKSLKCEQHLGHNAMYWYKQSAKKPLELMFVYNFKEQTENNSVPSRFSPECPNSSHLFLHLHTLQPEDSALYLCASSHGTGYNYGYTFGSGTRLTVV
B10: TCR188 (TCR, V domains shown)
Valpha: DAKTTQPNSMESNEEEPVHLPCNHSTISGTDYIHWYRQLPSQGPEYVIHGLTSNVNNRMASLAIAEDRKSSTLILHRATLRDAAVYYCILNTGTASKLTFGTGTRLQVTL
Vbeta: GAVVSQHPSWVICKSGTSVKIECRSLDFQATTMFWYRQFPKQSLMLMATSNEGSKATYEQGVEKDKFLINHASLTLSTLTVTSAHPEDSSFYICSAKEGTEAFFGQGTRLTVV

Where a chain is given by its changes, count along the chain named.

The target of the assay is T1, NY-ESO-1 peptide on HLA-A*02:01 (human).
T1 peptide: SLLMWITQC
As to the kind of experiment: multimer staining.
As for B1, the binding result is “recognises”.
Then B2, with “recognises”.
With B3, the binding result was “recognises”.
Take B4: the binding result is listed as “recognises”.
As for B5, the binding result is reported as “recognises”.
For the molecule B6, the binding result is “recognises”.
As for B7, the binding result is reported as “recognises”.
For B8, the binding result is recorded as “recognises”.
Then B9, with “recognises”; and B10, with “recognises”.
